Results reported in doi:10.1101/2021.08.16.456468, “Positive and negative control of helicase recruitment at a bacterial chromosome origin” (bioRxiv, 2021).

Assays:
[1] = biological target: the molecule itself; assay: SEC-MALS; purified DnaD variants, size exclusion chromatography followed by multiple angle light scattering
[2] = biological target: the molecule itself; assay: cross-linking; amine-specific BS^3, SDS-PAGE, immunoblot

Protein | stoichiometry N [1] | stoichiometry N [2]
DnaD, wild type, purified (natural protein, B. subtilis, UniProt P39787 1-232, looked up, DnaD, Bacillus subtilis, the full-length protein; tetramer of about 113 kDa by SEC-MALS (theoretical 110 kDa); also called wild-type DnaD; wild-type tetrameric DnaD) MKKQQFIDMQEQGTSTIPNLLLTHYKQLGLNETELILLLKIKMHLEKGSYFPTPNQLQEGMSISVEECTNRLRMFIQKGFLFIEECEDQNGIKFEKYSLQPLWGKLYEYIQLAQNQTQERKAEGEQKSLYTIFEEEFARPLSPLECETLAIWQDQDQHDAQLIKHALKEAVLSGKLSFRYIDRILFEWKKNGLKTVEQAKIHSQKFRRVQAKQNEPQKEYKRQVPFYNWLEQ | 4 | 
DnaD^K3A (natural protein, B. subtilis, UniProt P39787 1-232, looked up, DnaD, Bacillus subtilis, with K3A, used in BS^3 cross-linking) MKAQQFIDMQEQGTSTIPNLLLTHYKQLGLNETELILLLKIKMHLEKGSYFPTPNQLQEGMSISVEECTNRLRMFIQKGFLFIEECEDQNGIKFEKYSLQPLWGKLYEYIQLAQNQTQERKAEGEQKSLYTIFEEEFARPLSPLECETLAIWQDQDQHDAQLIKHALKEAVLSGKLSFRYIDRILFEWKKNGLKTVEQAKIHSQKFRRVQAKQNEPQKEYKRQVPFYNWLEQ |  | 2
DnaD^F6A, purified (natural protein, B. subtilis, UniProt P39787 1-232, looked up, DnaD, Bacillus subtilis, with F6A; eluted as a 57 kDa species (dimer); The measured mass fits the whole protein) MKKQQAIDMQEQGTSTIPNLLLTHYKQLGLNETELILLLKIKMHLEKGSYFPTPNQLQEGMSISVEECTNRLRMFIQKGFLFIEECEDQNGIKFEKYSLQPLWGKLYEYIQLAQNQTQERKAEGEQKSLYTIFEEEFARPLSPLECETLAIWQDQDQHDAQLIKHALKEAVLSGKLSFRYIDRILFEWKKNGLKTVEQAKIHSQKFRRVQAKQNEPQKEYKRQVPFYNWLEQ | 2 | 
DnaD^1-205, purified (domain or fragment, B. subtilis, UniProt P39787 1-205, looked up, also called DnaD variant lacking the C-terminal tail) MKKQQFIDMQEQGTSTIPNLLLTHYKQLGLNETELILLLKIKMHLEKGSYFPTPNQLQEGMSISVEECTNRLRMFIQKGFLFIEECEDQNGIKFEKYSLQPLWGKLYEYIQLAQNQTQERKAEGEQKSLYTIFEEEFARPLSPLECETLAIWQDQDQHDAQLIKHALKEAVLSGKLSFRYIDRILFEWKKNGLKTVEQAKIHSQK | 4 | 
